The source of these data is patent US20250170175A1 (OSLO UNIVERSITETSSYKEHUS HF, published 2025).

In assay [1] the target is HLA-A2 presenting TdT peptide-1 (…) on target cells (human). Nature of the assay: cell-based or functional assay.
The target of assay [2] is T1, human terminal deoxynucleotidyl transferase (TdT) peptide on HLA-A*02:01 (human).
T1 peptide: ALYDKTKRI
Nature of the assay: multimer staining.

Assay [3] concerns the target HLA-A2 presenting TdT peptide-3 (…) on target cells (human). Nature of the assay: cell-based or functional assay.
Assay [4] has as its target T1, human terminal deoxynucleotidyl …. Description: cytokine release.
In assay [5] the target is T2, human terminal deoxynucleotidyl transferase (TdT) peptide on HLA-A*02:01 (human).
T2 peptide: ALYDKTKRIFL
Description: multimer staining.

B1: T1 TCR (TCR, V domains shown)
V domain 1: EDQVTQSPEALRLQEGESSSLNCSYTVSGLRGLFWYRQDPGKGPEFLFTLYSAGEEKEKERLKATLTKKESFLHITAPKPEDSATYLCAVQASSNSGYALNFGKGTSLLVTP
V domain 2: SAVISQKPSRDICQRGTSLTIQCQVDSQVTMMFWYRQQPGQSLTLIATANQGSEATYESGFVIDKFPISRPNLTFSTLTVSNMSPEDSSIYLCSVEPGYADTQYFGPGTRLTVLE
As to B1, the “EC50 of activation of T1 cells following co-incubation with peptide-pulsed T2 lymphoblast cells” value in assay [1] amounted to 5.8 nM.

B2: T1 TCR (TCR, V domains shown)
Valpha: B1 V domain 1
Vbeta: SAVISQKPSRDICQRGTSLTIQCQVDSQVTMMFWYRQQPGQSLTLIATANQGSEATYESGFVIDKFPISRPNLTFSTLTVSNMSPEDSSIYLCSVEPGYADTQYFGPGTRLTVL
In the case of B2, in assay [2], the binding result was “recognises”.

B3: T3 TCR (TCR, V domains shown)
V domain 1: SQQGEEDPQALSIQEGENATMNCSYKTSINNLQWYRQNSGRGLVHLILIRSNEREKHSGRLRVTLDTSKKSSSLLITASRAADTASYFCATDAGAYSGGGADGLTFGKGTHLIIQP
V domain 2: EAQVTQNPRYLITVTGKKLTVTCSQNMNHEYMSWYRQDPGLGLRQIYYSMNVEVTDKGDVPEGYKVSRKEKRNFPLILESPSPNQTSLYFCASSLSSSYNEQFFGPGTRLTVLE
B3: the “EC50 of activation of T3 cells following co-incubation with peptide-pulsed T2 lymphoblast cells” value in assay [3] was found to be 1.2 nM.

B4: T3 TCR (TCR, V domains shown)
Valpha: B3 V domain 1
Vbeta: EAQVTQNPRYLITVTGKKLTVTCSQNMNHEYMSWYRQDPGLGLRQIYYSMNVEVTDKGDVPEGYKVSRKEKRNFPLILESPSPNQTSLYFCASSLSSSYNEQFFGPGTRLTVL
Take B4: the binding result is “no recognition” in assay [4] and “recognises” in assay [5].
